For three molecules, binding result and Kd results are on record in publication PMC4288197, “Novel RNA chaperone domain of RNA-binding protein La is regulated by AKT phosphorylation”.

By Kd is commonly meant a measure of binding affinity in units of concentration.

The target in series [1] is T1, La WT (LARP3) (Homo sapiens, UniProt P05455 1-408).
T1 sequence: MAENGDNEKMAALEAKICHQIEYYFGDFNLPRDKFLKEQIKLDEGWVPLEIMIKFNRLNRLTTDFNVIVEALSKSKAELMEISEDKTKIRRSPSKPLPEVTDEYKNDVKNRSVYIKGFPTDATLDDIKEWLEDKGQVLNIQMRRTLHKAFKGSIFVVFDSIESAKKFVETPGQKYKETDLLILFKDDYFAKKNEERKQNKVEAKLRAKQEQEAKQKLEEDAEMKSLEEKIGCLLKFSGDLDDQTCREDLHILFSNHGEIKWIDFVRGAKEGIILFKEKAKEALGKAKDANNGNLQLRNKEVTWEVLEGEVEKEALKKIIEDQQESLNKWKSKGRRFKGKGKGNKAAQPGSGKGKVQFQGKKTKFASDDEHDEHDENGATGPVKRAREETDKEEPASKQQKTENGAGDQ
Put plainly: competition; vs labeled D1-AUG; 20 mM Tris/HCl pH 8.0, 150 mM NaCl, 1.5 mM MgCl2, 0.5 mM EDTA, 0.5% NP-40 (FP: IGEPAL CA-630, 100 ug/ml bovine gamma globulin), 10 nM RNA, room temperature. The conditions noted are these: protein: recombinant; tags: His.

The target in series [2] is T1, La WT (LARP3). Nature of the series: EMSA; 20 mM Tris/HCl pH 8.0, 150 mM NaCl, 1.5 mM MgCl2, 0.5 mM EDTA, 0.5% NP-40 (FP: IGEPAL CA-630, 100 ug/ml bovine gamma globulin), 10 nM RNA, room temperature. As to conditions: protein: recombinant; tags: His; label: 32P (EMSA) or 5'-FAM (FP); hairpin (predicted).
In a further series the target is T2, La-Δlinker (Homo sapiens, UniProt P05455 1-408, del170-230).
T2 sequence: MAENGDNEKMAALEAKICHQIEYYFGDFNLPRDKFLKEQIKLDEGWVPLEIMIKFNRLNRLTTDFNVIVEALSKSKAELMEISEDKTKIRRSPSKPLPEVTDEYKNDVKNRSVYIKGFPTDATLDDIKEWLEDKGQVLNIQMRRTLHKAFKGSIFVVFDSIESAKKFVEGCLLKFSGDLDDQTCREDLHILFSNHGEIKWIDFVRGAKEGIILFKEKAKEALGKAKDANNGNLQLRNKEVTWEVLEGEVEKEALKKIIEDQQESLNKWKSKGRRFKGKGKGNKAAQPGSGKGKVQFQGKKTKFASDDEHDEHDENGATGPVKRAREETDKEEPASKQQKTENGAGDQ
The description is as above. As to conditions: protein: recombinant; tags: His; label: 32P (EMSA) or 5'-FAM (FP); hairpin (predicted).

For series [3], the target named is T1, La WT (LARP3). Put plainly: fluorescence polarization; 5'-FAM RNA; 20 mM Tris/HCl pH 8.0, 150 mM NaCl, 1.5 mM MgCl2, 0.5 mM EDTA, 0.5% NP-40 (FP: IGEPAL CA-630, 100 ug/ml bovine gamma globulin), 10 nM RNA, room temperature. As to conditions: protein: recombinant; tags: His; label: 32P (EMSA) or 5'-FAM (FP); hairpin (predicted).
The next series has as its target T3, LaΔ1 (LAM deleted) (Homo sapiens, UniProt P05455 1-408, del11-99).
T3 sequence: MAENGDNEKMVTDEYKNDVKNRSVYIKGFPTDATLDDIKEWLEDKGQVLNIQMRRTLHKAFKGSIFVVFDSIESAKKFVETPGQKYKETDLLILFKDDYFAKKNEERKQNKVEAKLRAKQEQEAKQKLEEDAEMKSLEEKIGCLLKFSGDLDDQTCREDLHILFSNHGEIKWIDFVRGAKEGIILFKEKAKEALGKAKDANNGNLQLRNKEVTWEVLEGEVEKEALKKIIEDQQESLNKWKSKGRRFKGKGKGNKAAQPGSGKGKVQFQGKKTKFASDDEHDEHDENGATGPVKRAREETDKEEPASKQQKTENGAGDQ
Put plainly: EMSA; affinity similar to WT; two complexes; 20 mM Tris/HCl pH 8.0, 150 mM NaCl, 1.5 mM MgCl2, 0.5 mM EDTA, 0.5% NP-40 (FP: IGEPAL CA-630, 100 ug/ml bovine gamma globulin), 10 nM RNA, room temperature. As to conditions: protein: recombinant; tags: His; label: 32P (EMSA) or 5'-FAM (FP); hairpin (predicted).

In a further series the target is T4, LaΔRCD (Homo sapiens, UniProt P05455 1-408, R334G;R335G;F336V;K337G;G338G;K339G;F357V;K360G;K361G;T362T;K363G;F364V).
T4 sequence: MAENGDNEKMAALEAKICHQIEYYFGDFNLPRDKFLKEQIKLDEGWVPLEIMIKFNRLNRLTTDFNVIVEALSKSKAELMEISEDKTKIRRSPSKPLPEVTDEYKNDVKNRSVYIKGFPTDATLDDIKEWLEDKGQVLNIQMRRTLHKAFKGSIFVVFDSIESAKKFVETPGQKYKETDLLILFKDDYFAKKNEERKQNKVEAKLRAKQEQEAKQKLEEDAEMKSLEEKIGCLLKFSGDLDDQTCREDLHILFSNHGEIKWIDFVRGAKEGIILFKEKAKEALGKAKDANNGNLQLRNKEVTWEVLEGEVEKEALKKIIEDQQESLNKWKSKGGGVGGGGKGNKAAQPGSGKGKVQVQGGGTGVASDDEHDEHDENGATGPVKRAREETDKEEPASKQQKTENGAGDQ
Put plainly: EMSA; similar to WT; two complexes at high La; 20 mM Tris/HCl pH 8.0, 150 mM NaCl, 1.5 mM MgCl2, 0.5 mM EDTA, 0.5% NP-40 (FP: IGEPAL CA-630, 100 ug/ml bovine gamma globulin), 10 nM RNA, room temperature. The conditions noted are these: protein: recombinant; tags: His; label: 32P (EMSA) or 5'-FAM (FP); hairpin (predicted).

On to CAGGAAGAGCCCCAGCCAGGGAACACCAGCUCCUG (ssRNA) [D1-mu2], for which the binding result in the series with La WT (LARP3) [1] is “binds”.
As to GCUGCCCAGGAAGAGCCCCAGCCAUGGAACACCAGCUCCUGUGCUGC (structured_RNA) [D1-AUG], the Kd in the series with La WT (LARP3) [2] was 80.3 nM; in the series with La WT (LARP3) [3], 76 nM. Also, the binding result with La-Δlinker was “no binding”; in the series with LaΔ1 (LAM deleted), “binds”; with LaΔRCD, “binds”.
Consider CAGGAAGAGCCCCACAGAUGCACCACCAGCUCCUG (ssRNA) [D1-mu3], for which the binding result with La WT (LARP3) [1] is “no binding”.
